Experimental data reported in US20250314655A1 (AUTOLUS, published 2025).
No end group written: not given here.

B1: CP_03_D05 (scFv, not shown: small tags and cut ends)
scFv: QVQLVESGAEVKKPGASVKVSCKASGYTFTGYYMHWVRQAPGQGLEWMGRINPNSGGTNYAQKFQGRVTMTRDTSISTAYMELSRLRSDDTAVYYCASPRGRGSAFDIWGQGTLVTVSSGGGGSGGGGSGGGASSYELTQPPSVSVSPGQTATISCSGDQLGGKYGHWYQKKPGQSPVLVLYQDRKRPAGIPERFSGSSSGNTITLTISGTQAVDEADYYCQAWDTNLGGVFGGGTKVTVLGQPAA
notes: scFv from pSANG10-3F (His6, tri-FLAG), culture supernatant
B2: CP_03_D04 (scFv, not shown: small tags and cut ends)
scFv: EVQLVESGGGVVQPGRSLRLSCAASGFTFSSYAMHWVRQAPGKGLEWVAVISYDGSNKYYADSVKGRFTISRDNSKNTLYLQMNSLRAEDTAVYYCARGGFTVPGGAFDIWGQGTLVTVSSGGGGSGGGGSGGGASNFMLTQPHSVSDSPGKTVTISCTRSSGRIGSNFVQWYQQRPGSSPTTVIYEDDQRPSGVPARFSGSIDSSSNSASLTISGLTTADEAGYYCQSYDASNVIFGGGTKLTVLGQPAA
notes: as for B1
B3: CP_03_G02 (scFv, not shown: small tags and cut ends)
scFv: EVQLVQSGAEVKKPGSSVKVSCKASGGTFSSYAISWVRQAPGQGLEWMGIINPSGGSTSYAQKFQGRVTMTRDTSTSIVYMELSSLRSEDTAVYYCARGVWNSGSYLGFDYWGQGTLVTVSSGGGGSGGGGSGGGASDIQMTQSPSSLSASVGDRVTITCQASQDISNYLNWYQQKPGKAPKLLIYAASSLQSGVPSRFSGSGSGTDFTLTISSLQPEDFATYYCQQSYSTPLTFGGGTKLEIKRTAAA
notes: as for B1
B4: CP_03_C12 (scFv, not shown: small tags and cut ends)
scFv: EVQLVQSGAEVKKPGASVKVSCKASGYTFTGYYMHWVRQAPGQGLEWMGWINPNSGGTNYAQKFQGRVTMTRDTSISTAYMELSSLRSEDTAVYYCARDTGPIDYWGQGTMVTVSSGGGGSGGGGSGGGASDIVMTQTPLSLSVTPGQPASISCKSSQSLLHSDGKTYLYWYLQKPGQPPQLLVYEVSNRFSGVPDKFSGSGSGTDFTLKISRVEAEDVGVYYCMQGIQLPPTFGGGTKVDIKRTAAA
notes: as for B1
B5: CP_03_F10 (scFv, not shown: small tags and cut ends)
scFv: EVQLVESGAEVKKPGASVKVSCKASGYTFTGYYMHWVRQAPGQGLEWMGRINPNSGGTNYAQKFQGRVTMTRDTSISTAYMELSSLRSEDTAVYYCARFGERYAFDIWGQGTLVTVSSGGGGSGGGGSGGGASQSELTQPPSASGSPGQSVTISCTGTSTDVGAFHFVSWYQHTPGKAPKLLISEVRKRASGVPDRFSGSRSGNTASLTVSGLQSEDEADYFCSAYTGSNYVFGSGTKLTVLGQPAA
notes: as for B1
B6: CP_03_H06 (scFv, not shown: small tags and cut ends)
scFv: QVQLVESGGGLVKPGGSLRLSCAASGFTFSDYYMSWIRQAPGKGLEWVSYISSSGSTIYYADSVEGRFTISRDNAKNSLYLQMNSLRTEDTAVYYCARARVGGMDVWGQGTMVTVSSGGGGSGGGGSGGGASNFMLTQPHSVSESPGKTVTISCTRSSGSIASNYVQWYQQRPGSSPTTVIYEDNQRPSGVPDRFSGSIDSSSNSASLTISGLKTEDEADYYCQSFDADNLHVVFGGGTKLTVLGQPAA
notes: as for B1
B7: CP_03_F09 (scFv, not shown: small tags and cut ends)
scFv: QMQLVQSGAEVKKPGASVKVSCKASGYTFASYYMHWVRQAPGQGLEWMGIINPSGGSTSYAQKFQGRVTMTRDTSTSTVYMELSRLRSDDTAVYYCASNRGGSYKSVGMDVWGQGTTVTVSSGGGGSGGGGSGGGASNFMLTQPQSVSESPGKTVTISCTRSSGNFASKYVQWYQQRPGSSPTTVIYENYQRPSGVPDRFSGSIDSSSNSATLTISGLKTEDEADYYCQSYDEVSVVFGGGTQLTVLGQPAA
notes: as for B1
B8: CP_03_E05 (scFv, not shown: small tags and cut ends)
scFv: EVQLVESGGGVVQPGGSLRLSCAASGFTFSSYAMSWVRQAPGKGLEWVSAISGSGGSTYYADSVKGRFSISRDNSKNTLYLQMNSLRAEDTAVYYCARTRSSGAFDIWGQGTLVTVSSGGGGSGGGGSGGGASNFMLTQPHSVSESPGKTVTISCTRSSGSIASKYVQWYQQRPGSSPTTVIYEDNQRPSGVPDRFSGSIDTSSNSASLTISGLRTEDEADYYCHSYDSNNHSVFGGGTKVTVLGQPAA
notes: as for B1
B9: CP_03_D09 (scFv, not shown: small tags and cut ends)
scFv: EVQLVQSGAEVKKPGSSVKVSCEASGYTFTSYAISWVRQAPGQGLEWMGWMNPNSGNTGYAQKFQGRVTMTRNTSISTAYMELSSLRSEDTAVYYCARVSSYYGMDVWGQGTLVTVSSGGGGSGGGGSGGGASNFMLTQPLSVSESPGKTVTISCTRSSGSIASNYVQWYQQRPGSAPTTVIYEDNQRPSGVPDRFSGSIDSSSNSASLTISGLKTEDEADYYCQSYNSSNHWVFGGGTKVTVLGQPAA
notes: as for B1
B10: CP_03_G09 (scFv, not shown: small tags and cut ends)
scFv: QVQLQQSGPGLVKPSQTLSLTCAISGDSVSSNSAAWNWIRQSPSRGLEWLGRTYYRSKWYNDYAVSVKSRITINPDTSKNQFSLQLNSVTPEDTAVYYCARDQWLANYYYYGMDVWGQGTLVTVSSGGGGSGGGGSGGGASSYELTQPLSVSVALGQTARITCGGNNIGSKNVHWYQQKPGQAPVLVIYRDNNRPSGIPERFSGSNSGNTATLTISKAQAGDEADYYCQVWDSNSWVFGGGTKLTVLGQPAA
notes: as for B1
B11: CP_01_D03 (scFv, not shown: small tags and cut ends)
scFv: QVQLVESGGGVVQPGRSLRLSCAAPGFTFSSYGMHWVRQAPGKGLEWVAVISYDGSNKYYADSVKGRFTISRDNSKNTLYLQMNSLRAEDTAVYYCARNKQYGMDVWGQGTLVTVSSGGGGSGGGGSGGGASDIVMTQSPATLSLAPGERATLSCRASQSVGSNLAWYQQKPGQAPSLLIYDASTRATGIPARFSGSGSGTDFTLTISSLQSEDIAVYYCQQYHRWPLTFGGGTKVEIKRTAAA
notes: as for B1
B12: CP_01_C11 (scFv, not shown: small tags and cut ends)
scFv: QVQLVESGAEVKKPGASVKVSCKASGYTFTGYYMHWVRQAPGQGLEWMGRINPNSGGTNYAQKFQGRVTMTRDTSISTAYMELSRLRSDDTAVYYCASGGAGWNWGQGTMVTVSSGGGGSGGGGSGGGASNFMLTQPHSVSESPGKTATISCTRSSGSIASNYVQWYQQRPGSAPTTVIYEDNQRPFGVPDRFSGSIDSSSNSASLTISGLKTEDEADYYCQSHDSSNVVFGGGTQLTVLGQPAA
notes: as for B1
B13: CP_01_D10 (scFv, not shown: small tags and cut ends)
scFv: QVQLVESGGGLVQPGRSLRLSCAASGFTFSSYAMHWVRQAPGKGLEWVAVISYDGSSKYYADSVKGRFTISRDNSKNTLYLQMNSLRAEDTAVYYCAKGGGSFGAFDIWGQGTLVTVSSGGGGSGGGGSGGGASDIQMTQSPSSLSASVGDRVTITCRASQSISRYLNWYQQKPGKAPNLLIYAASSLQSGVPSRFSGSGSGTDFTLTISSLQPEDFATYYCQQYNSYPLTFGGGTKLEIKRTAAA
notes: as for B1
B14: CP_01_C08 (scFv, not shown: small tags and cut ends)
scFv: EVQLLESGGGAVQPGRSLRLSCAASGFTFSSYAMHWVRQAPGKGLEWVAVISYDGSNKYYADSVKGRFTISRDNSKNTLYLQMNSLRAEDTAVYYCASGYSSSWYLDYWGQGTLVTVSSGGGGSGGGGSGGGASDIQMTQSPSSVSASVGDRVTITCQASQDISNYLNWYQQKPGKAPKLLIYDASNLETGVPSRFSGSGSGTDFTFTISSLQPEDIATYYCQQYDNLPLTFGGGTKVEIKRTAAA
notes: as for B1
B15: CP_01_D12 (scFv, not shown: small tags and cut ends)
scFv: EVQLLESGGGVVQPGRSLRLSCAASGFTFSSYAMHWVRQAPGKGLEWVAVISYDGSNKYYADSVKGRFTISRDNSKNTLYLQMNSLRAEDTAVYYCAKGGDTYGFLDNWGQGTMVTVSSGGGGSGGGGSGGGASDIQMTQSPSTLSASVGDRVTITCRASQSISSWLAWYQQKPGKAPKLLIYKASSLESGVPSRFSGSGSGTDFTLTISSLQPEDFATYYCQQFNAYPLTFGGGTKVEIKRTAAA
notes: as for B1
B16: CP_01_F02 (scFv, not shown: small tags and cut ends)
scFv: QVQLVESGGGVVQPGRPLRLSCAASGFTFSSYAMHWVRQAPGKGLEWVAVISYDGSNKYYADSVKGRFTISRDNSKNTLYLQMNSLRAEDTAVYYCARAGYSYADYWGQGTMVTVSSGGGGSGGGGSGGGASDIQMTQSPSSLSASVGDRVTITCRASQGIRNDLGWYQQKPGKAPKRLIYAASSLQSGVPSRFSGSGSGTEFTLTISSLQPEDFATYYCLQHNSYPLTFGGGTKVDIKRTAAA
notes: as for B1
B17: CP_01_E09 (scFv, not shown: small tags and cut ends)
scFv: QVQLVESGGGVVQPGRSLRLSCAASGFTFSSYAMHWVRQAPGKGLEWVAVISYDGSNKYYADSVKGRFTISRDNSKNTLYLQMNSLRAEDTAVYYCARAHNSSSWSFDYWGQGTLVTVSSGGGGSGGGGSGGGASDIQMTQSPSSLSASVGDRVTITCRASQSISSYLNWYQQKPGKAPKLLIYDASNLETGVPSRFSGSGSGTDFTFTISSLQPEDIATYYCQQYDNLPLTFGGGTKVDIKRTAAA
notes: as for B1
B18: CP_01_F06 (scFv, not shown: small tags and cut ends)
scFv: EVQLLESGGGVVQPGRSLRLSCAASGFTFSSYGMHWVRQAPGKGLEWVAVISYDGSNKYYADSVKGRFTISRDNSKNTLYLQMNSLRAEDTAVYYCAKDDGAMRYWGQGTMVTVSSGGGGSGGGGSGGGASDIQMTQSPDSLAVSLGERATINCKSSQSVLYSSNNKNYLAWYQQKPGQPPKLLIYWASTRESGVPDRFSGSGSGTDFTLTISSLQAEDVAVYYCQQYYDSPYTFGQGTKVDIKRTAAA
notes: as for B1
B19: CP_01_E07 (scFv, not shown: small tags and cut ends)
scFv: QVQLVESGGGVVQPGRSLRLSCAASGFTFSSYGMHWVRQAPGKGLEWVAVISYDGSNKYYADSVKGRFTISRDNSKNTLYLQMNSLRAEDTAVYYCAKDLGGSGGAFDIWGQGTLVTVSSGGGGSGGGGSGGGASDIVMTQTPHSLSVTPGQPASISCKSSQSLLYSDGKTYLYWYLQKPGQPPQLLIYEVSNRFSGVPDRFSGSGSGTDFTLKISRVEAEDVGVYYCMQSIQLYTFGQGTKVDIKRTAAA
notes: as for B1

Biological target: T1, TRBC2 peptide (biotinylated) (human, also: biotinylated (site not given here))
T1 construct: In the monoclonal screen: biotinylated, 0.5 ug/ml on neutravidin-coated plates; In the polyclonal phage ELISA also presented as BSA or OA conjugate of the C-terminal-cysteine form; also called Bio-TRBC2; biotinylated TRBC2
T1 peptide: VLEDLKNVFPPEVAV
Assay: TRF assay, scFv on biotin-peptide/neutravidin plate
Method: (§1) The scFv populations from round-2 and round-3 selection outputs were sub-cloned into the pSANG10-3F expression vector and transformed into E. coli BL21 (DE3) cells. 1128 individual transformants (564 clones/TRBC peptide) were picked into 12×96 well culture plates (94 clones/plate) and antibody expression was induced using autoinduction media. Recombinant monoclonal antibodies secreted into culture supernatant after overnight induction were tested for binding to biotinylated TRBC1 and TRBC2 immobilised on neutravidin coated Nunc Maxisorp™ 96 well plates.

| Binder | TRBC2 binding [TRF units] |
| --- | --- |
| B1 | 213000 |
| B2 | 143000 |
| B3 | 152000 |
| B4 | 167000 |
| B5 | 140000 |
| B6 | 168000 |
| B7 | 132000 |
| B8 | 217000 |
| B9 | 129000 |
| B10 | 139000 |

Biological target: T2, TRBC1 peptide (biotinylated) (human, also: biotinylated (site not given here))
T2 construct: In the monoclonal screen: biotinylated, 0.5 ug/ml on neutravidin-coated plates; In the polyclonal phage ELISA also presented as BSA or OA conjugate of the C-terminal-cysteine form; also called Bio-TRBC1; biotinylated TRBC1
T2 peptide: VLEDLNKVFPPEVAV
Assay: as above
Method: as §1

| Binder | TRBC1 binding [TRF units] |
| --- | --- |
| B11 | 328000 |
| B12 | 349000 |
| B13 | 371000 |
| B14 | 353000 |
| B15 | 393000 |
| B16 | 302000 |
| B17 | 403000 |
| B18 | 325000 |
| B19 | 332000 |
